Laboratory results reported in PMC8529511.

Biological target: Trypsin (UniProt P00761)
Test: enzyme inhibition assay

| Substance | Ki [nM] |
| --- | --- |
| C16-EETI-II (palmitoyl, C16:0, fatty acylated EETI-II) (peptide) | 0.132 |
| C14-EETI-II (myristoyl, C14:0, fatty acylated EETI-II) (peptide) | 0.1 |
| C12-EETI-II (lauroyl, C12:0, fatty acylated EETI-II) (peptide) | 0.102 |
| C18-EETI-II (stearoyl, C18:0, fatty acylated EETI-II; octadecanedioic acid conjugate) (peptide) | 0.125 |
